Test results: patent US20230340137A1, “METHODS, THERAPIES AND USES FOR TREATING CANCER” (PFIZER INC., priority 2020, published 2023)

What was measured:
[1] = tested on: MM.1S-Luc-PD-L1 multiple myeloma cells; assay: Orthotopic MM.1S-Luc-PD-L1 multiple myeloma mouse model, luminescent imaging; assay type: in vivo, NSG mice; conditions: BCMAxCD3 10 μg/kg single IV dose day 21, anti-PD-1 5 mg/kg IP twice a week
Procedure: MM.1 S-Luc multiple myeloma cells were engineered to express PD-L1 and are referred to as MM.1S-Luc-PD-L1. MM.1S-Luc-PD-L1 cells were prepared as a single cell suspension of 5×10^6 cells for intravenous (IV) inoculation into NSG mice.
Tumor growth was monitored by luminescent imaging by intraperitoneal (IP) injection of luciferin solution in DPBS and imaged using Perkin Elmer IVIS Spectrum camera system. Animals were administered 2×10^7 expanded human T cells IV 19 days after tumor cell inoculation. Two days following T cell administration, a single dose of the BCMAxCD3 bispecific (10 μg/kg) was administered as a bolus IV injection. Anti-PD-1 antibody was administered twice a week as a bolus IP injection at 5 mg/kg for a total of 6 injections.
Tumor growth was monitored via imaging measurements collected twice weekly. Mice were imaged using the Perkin Elmer IVIS Spectrum camera system with automatic parameter determination and a maximum imaging time of 3 minutes. Living Image software was used to collect the data. Regions of Interest (ROIs) were drawn around the entire body of the mouse, excluding as much as possible of the tail. Background flux, as measured on the anesthesia manifold, is subtracted from each ROI. Tumor measurements are expressed as total flux expressed in photons/sec (p/s). Study was terminated at day 40 post tumor inoculation.

[2] = tested on: CD8+ T cells co-cultured with MM.1S multiple myeloma cells; assay: PD-1 induction on CD8+ T cells co-cultured with MM.1S-luc cells, flow cytometry; assay type: cell-based, human; conditions: 1 nM BCMAxCD3 bispecific
Procedure: CD3+ T cells from PBMCs (Stem Cell Technologies) were negatively selected using EasySep Human T cell enrichment kit (Stem Cell Technologies). 10,000 target Multiple Myeloma MM.1S cells expressing luciferase (MM.1S-luc) were seeded with 50,000 CD3^+ pan T cells in a clear 96-well V-bottom plate. Cells were treated with 1 nM BCMAxCD3 bispecific antibody and PD-1 expression was analyzed at 3, 24, 48 and 72 hours after addition of the BCMAxCD3 bispecific. At the specified time points, cells were collected from the wells, washed with PBS+2% FBS, and stained with ZombieNlR Viability dye (Biolegend) in PBS for 20 minutes at room temperature, followed by staining with antibodies against human CD8 and PD-1 (Biolegend). Samples were analyzed using FlowJo flow cytometry analysis software. Dead cells were removed from analysis by gating on ZombieNlR negative population. Samples were further gated on CD8^+ positive population. Percentage of PD-1^+ cells is expressed as PD-1 positive cells within the CD8^+ population.

H929-luc cells = assay: BCMAxCD3 mediated cell killing with human T cells, with or without GSI (luciferase viability); assay type: cell-based; conditions: with or without 1 μM GSI, 60 hours
Procedure: (§1) CD3^+ T cells from PBMCs (Stem Cell Technologies) were negatively selected using EasySep Human T cell enrichment kit (Stem Cell Technologies). Multiple myeloma cells expressing luciferase (MM.1S-luc, OPM2-luc, H929-luc, Molp8-luc, RPMI8226-luc) were treated with 1 μM GSI […]. After 24 hours, cells were seeded with 50,000 CD3^+ pan T cells in a clear 96-well V-bottom plate. Cells were further treated with a range of BCMAxCD3 bispecific antibody concentrations with or without 1 μM GSI. 60 hours after treatment, luciferase activity in treated cells was analyzed using NeoLite reagent kit (Perkin Elmer) and acquired on VictorX multimode plate reader (Perkin Elmer). Cell viability was calculated by dividing luciferase activity of treated cells over luciferase activity of untreated control (no BCMAxCD3 bispecific antibody added).

RPMI8226-luc cells = assay: as above; assay type: cell-based; conditions: with or without 1 μM GSI, 60 hours
Procedure: as §1

MM.1S-luc cells = assay: as above; assay type: cell-based; conditions: with or without 1 μM GSI, 60 hours
Procedure: as §1

Molp8-luc cells = assay: as above; assay type: cell-based; conditions: with or without 1 μM GSI, 60 hours
Procedure: as §1

OPM2-luc cells = assay: as above; assay type: cell-based; conditions: with or without 1 μM GSI, 60 hours
Procedure: as §1

[3] = Phase 1 clinical study NCT03269136, preliminary pharmacokinetic analysis; assay type: in vivo, human; conditions: preliminary pharmacokinetic (PK) analysis
Procedure: Therefore, a fixed dose is suitable for the dosing of PF-06863135. Based on the encouraging efficacy data and safety data obtained from Part I of Study, a promising RP2D for Part 2A of the study could be a fixed dose equivalent of 1000 μg/kg (ie, 76 mg) of PF-06863135 either in Q1W or Q2W. A fixed dose equivalent of 600 μg/kg (ie, 44 mg) will likely be used as a priming dose on cycle zero day 1. The initial dose of 44 mg serves as a priming dose and is designed to mitigate the CRS symptoms of the later 76 mg dose. […] Subsequently, the 44 mg (priming) and 76 mg (maintenance) were selected as the single agent RP2D dose. Patient will be administered a single priming dose of 44 mg SC of PF06863135, followed by maintenance dosing of 76 mg Q1W SC or 76 mg Q2W starting 7 days after the single priming dose.

## PF-06863135: heterodimeric humanized full-length bispecific antibody, one BCMA binding arm and one CD3 binding arm, modified human IgG2Δa Fc
[1]; day 15 post tumor cell inoculation (before dosing)
  Tumor measurements expressed as total flux: 1.513 × 10^7 p/s
[1]; day 18 post tumor cell inoculation (before dosing)
  Tumor measurements expressed as total flux: 8.343 × 10^7 p/s
[1]; day 20 post tumor cell inoculation (before dosing)
  Tumor measurements expressed as total flux: 1.788 × 10^8 p/s
[1]; day 25 post tumor cell inoculation
  Tumor measurements expressed as total flux: 2.2729 × 10^7 p/s
[1]; day 28 post tumor cell inoculation
  Tumor measurements expressed as total flux: 7.082 × 10^7 p/s
[1]; day 32 post tumor cell inoculation
  Tumor measurements expressed as total flux: 7.076 × 10^7 p/s
[1]; day 35 post tumor cell inoculation
  Tumor measurements expressed as total flux: 8.712 × 10^8 p/s
[1]; day 39 post tumor cell inoculation
  Tumor measurements expressed as total flux: 6.776 × 10^8 p/s
[2]; 3 hours
  % PD-1 (of CD8+ T cells): 12.8 ± 0.6%
[2]; 24 hours
  % PD-1 (of CD8+ T cells): 18.9 ± 1.2%
[2]; 48 hours
  % PD-1 (of CD8+ T cells): 69.9 ± 3.1%
[2]; 72 hours
  % PD-1 (of CD8+ T cells): 69.9 ± 3.1%
H929-luc cells; BCMAxCD3 0.00001 nM
  H929 cell viability: 80.2 ± 0.3 % control
H929-luc cells; BCMAxCD3 0.00005 nM
  H929 cell viability: 81.1 ± 0.2 % control
H929-luc cells; BCMAxCD3 0.00026 nM
  H929 cell viability: 79 ± 0.8 % control
H929-luc cells; BCMAxCD3 0.00128 nM
  H929 cell viability: 77.8 ± 3.3 % control
H929-luc cells; BCMAxCD3 0.0064 nM
  H929 cell viability: 81.2 ± 3 % control
H929-luc cells; BCMAxCD3 0.032 nM
  H929 cell viability: 98.6 ± 1.2 % control
H929-luc cells; BCMAxCD3 0.16 nM
  H929 cell viability: 23.2 ± 7.2 % control
H929-luc cells; BCMAxCD3 0.8 nM
  H929 cell viability: 11.3 ± 1.5 % control
H929-luc cells; BCMAxCD3 4 nM
  H929 cell viability: 8.6 ± 3 % control
RPMI8226-luc cells; BCMA × CD3 0.00064 nM
  RPMI8226 cell viability: 113.2 ± 10.6 % control
RPMI8226-luc cells; BCMA × CD3 0.0032 nM
  RPMI8226 cell viability: 130.5 ± 19.5 % control
RPMI8226-luc cells; BCMA × CD3 0.016 nM
  RPMI8226 cell viability: 113.4 ± 1.3 % control
RPMI8226-luc cells; BCMA × CD3 0.08 nM
  RPMI8226 cell viability: 54.2 ± 16.9 % control
RPMI8226-luc cells; BCMA × CD3 0.4 nM
  RPMI8226 cell viability: 28.7 ± 13.6 % control
RPMI8226-luc cells; BCMA × CD3 2 nM
  RPMI8226 cell viability: 25.7 ± 5.5 % control
RPMI8226-luc cells; BCMA × CD3 10 nM
  RPMI8226 cell viability: 19.9 ± 1.1 % control
RPMI8226-luc cells; BCMA × CD3 50 nM
  RPMI8226 cell viability: 19.4 ± 5^ % control
MM.1S-luc cells; BCMAxCD3 0.00001 nM
  MM.1S cell viability: 80.6 ± 3.9 % control
MM.1S-luc cells; BCMAxCD3 0.00005 nM
  MM.1S cell viability: 79.8 ± 2.9 % control
MM.1S-luc cells; BCMAxCD3 0.00026 nM
  MM.1S cell viability: 78 ± 0.9 % control
MM.1S-luc cells; BCMAxCD3 0.00128 nM
  MM.1S cell viability: 87.7 ± 4.4 % control
MM.1S-luc cells; BCMAxCD3 0.0064 nM
  MM.1S cell viability: 108 ± 4.5 % control
MM.1S-luc cells; BCMAxCD3 0.032 nM
  MM.1S cell viability: 2.5 ± 0.3 % control
MM.1S-luc cells; BCMAxCD3 0.16 nM
  MM.1S cell viability: 1.7 ± 0.8 % control
MM.1S-luc cells; BCMAxCD3 0.8 nM
  MM.1S cell viability: 2.4 ± 0.5 % control
MM.1S-luc cells; BCMAxCD3 4 nM
  MM.1S cell viability: 1.3 ± 0.8 % control
Molp8-luc cells; BCMAxCD3 0.00001 nM
  Molp8 cell viability: 64 ± 11.6 % control
Molp8-luc cells; BCMAxCD3 0.00005 nM
  Molp8 cell viability: 59.1 ± 4.6 % control
Molp8-luc cells; BCMAxCD3 0.00026 nM
  Molp8 cell viability: 58.5 ± 0.6 % control
Molp8-luc cells; BCMAxCD3 0.00128 nM
  Molp8 cell viability: 66.7 ± 0.3 % control
Molp8-luc cells; BCMAxCD3 0.0064 nM
  Molp8 cell viability: 55.2 ± 1.3 % control
Molp8-luc cells; BCMAxCD3 0.032 nM
  Molp8 cell viability: 66.1 ± 4.9 % control
Molp8-luc cells; BCMAxCD3 0.16 nM
  Molp8 cell viability: 8 ± 2 % control
Molp8-luc cells; BCMAxCD3 0.8 nM
  Molp8 cell viability: 6.1 ± 0.7 % control
Molp8-luc cells; BCMAxCD3 4 nM
  Molp8 cell viability: 5.2 ± 0.3 % control
OPM2-luc cells; BCMA × CD3 0.00064 nM
  OPM2 cell viability: 83.8 ± 3.4 % control
OPM2-luc cells; BCMA × CD3 0.0032 nM
  OPM2 cell viability: 84.3 ± 3.1 % control
OPM2-luc cells; BCMA × CD3 0.016 nM
  OPM2 cell viability: 68.4 ± 2.4 % control
OPM2-luc cells; BCMA × CD3 0.08 nM
  OPM2 cell viability: 43.6 ± 6.4 % control
OPM2-luc cells; BCMA × CD3 0.4 nM
  OPM2 cell viability: 3.1 ± 0.8 % control
OPM2-luc cells; BCMA × CD3 2 nM
  OPM2 cell viability: 2.8 ± 0.8 % control
OPM2-luc cells; BCMA × CD3 10 nM
  OPM2 cell viability: 2 ± 0.2 % control
OPM2-luc cells; BCMA × CD3 50 nM
  OPM2 cell viability: 3.3 ± 0.3 % control
[3]
  body weight as factor on PF-06863135 exposure: not a clinically relevant factor
